The source of these data is patent US20070105771A1 (Y S THERAPEUTICS, published 2007).

In test [1] the target is T1, human CD26-derived 13 mer peptide 57 (human).
T1 peptide: VGHKLAYVWNNDI
The test can be described thus: peptide microarray. The protocol:
The overnight incubation was followed by three washings with each of PBS buffer pH 7.5 and water. The microarrays were then scanned using ArrayWorx-Microarray Scanner.
The SPOT recognition software package ArrayPro was used for data analysis. The mean of signal intensities from 3 identical subarrays on each microarray image was used for data evaluation.

The target in test [2] is T2, Purified recombinant human CD26 (rhDipeptidyl peptidase IV), R&D Systems CAT #1180-SE (human, UniProt P27487 29-766).
T2 construct: Bought recombinant protein; also called hu-CD26; soluble human CD26
T2 sequence (P27487 29-766 limits assumed): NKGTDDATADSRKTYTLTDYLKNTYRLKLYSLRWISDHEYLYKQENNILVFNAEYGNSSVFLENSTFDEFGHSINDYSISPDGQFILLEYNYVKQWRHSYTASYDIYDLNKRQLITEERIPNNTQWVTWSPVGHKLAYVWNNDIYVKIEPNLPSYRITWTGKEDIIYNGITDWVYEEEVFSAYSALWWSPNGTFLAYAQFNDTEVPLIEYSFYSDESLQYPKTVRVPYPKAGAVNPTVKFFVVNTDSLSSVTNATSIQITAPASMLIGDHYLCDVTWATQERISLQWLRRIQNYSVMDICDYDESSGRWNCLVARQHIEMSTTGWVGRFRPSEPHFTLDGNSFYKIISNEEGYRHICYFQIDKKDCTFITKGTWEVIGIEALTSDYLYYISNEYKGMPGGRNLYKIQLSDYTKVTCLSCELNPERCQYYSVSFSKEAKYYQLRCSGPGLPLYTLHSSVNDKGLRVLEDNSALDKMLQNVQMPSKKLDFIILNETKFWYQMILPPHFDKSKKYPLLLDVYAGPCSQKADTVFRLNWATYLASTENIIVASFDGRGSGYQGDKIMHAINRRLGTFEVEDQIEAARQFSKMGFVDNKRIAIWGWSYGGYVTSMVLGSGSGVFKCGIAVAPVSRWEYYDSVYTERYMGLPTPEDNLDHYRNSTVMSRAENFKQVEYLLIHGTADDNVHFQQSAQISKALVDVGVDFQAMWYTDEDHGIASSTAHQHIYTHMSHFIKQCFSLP
The test is described as follows: SPR (Biacore), IgG1. The protocol: Fabs produced in E. coli as described below were diluted in PBS in a concentration of ˜0.5 μM for the assay. A typical recording included a 3 minute period of injection of the Fab followed by a period of 15 minutes of dissociation, and analysis was performed based on the raw data of the binding curves accordingly.
Analyses thereof were performed using Biacore® as described in Example 1, excepting the binding partners were the rhuMAbs noted above.

B1: rhuMAb 411 (antibody, human IgG1, kappa, V domains shown)
VH: EVQLVESGAGVKQPGGTLRLTCTASGFSLTTYGVHWVRQAPGKGLEWVGVIWGDGRTDYDAAFMSRVTISKDTSKSTVYLQMNSLRAEDTAVYYCMRNRHDWFDYWGQGTTVTVSS
VL: DILLTQSPSSLSATPGERATITCRASQGIRNNLNWYQQKPGQAPRLLIYYSSNLQSGVPSRFSGSGSGTDFTLTISRLQPEDVAAYYCQQSIKLPFTFGSGTKVEIKR
notes: also called X411
B1: the “Mean Signal Value” in test [1] was found to be 9.67. In addition, in test [2], the “-fold against rhuMAb 409” value was found to be 3.7 and the Kd worked out at 0.22 nM.
